Experimental data published in patent EP1073891B1, “METHOD OF PREDICTING RECEPTOR MODULATING ACTIVITY” (Duke University, priority 1998, dated 1999).

Experiments:
ERα = target: T1, ERα (Homo sapiens, UniProt P03372); experiment: Phage ELISA / fingerprint on ER immobilized on biotinylated ERE (Examples 2.3-2.5); type: binding; set-up: purchased PanVera Corporation, Madison, WI; key to binding activity, ERα and buffer / binding activity, ERα and estradiol / binding activity, ERα and tamoxifen / binding of peptide, Class Specific Fingerprint on ERα: semiquantitative scale of 0 to 7+; 1+: semiquantitative scale of 0 to 7+; 2+: semiquantitative scale of 0 to 7+; 3+: semiquantitative scale of 0 to 7+; 4+: semiquantitative scale of 0 to 7+; 5+: semiquantitative scale of 0 to 7+; 6+: semiquantitative scale of 0 to 7+; semiquantitative scale of 0 to 7+; settings: for binding activity, ERα and estradiol: ERα and estradiol (1 µM); for binding activity, ERα and tamoxifen: ERα and tamoxifen (4-OH tamoxifen, 1 µM)
T1 sequence (P03372 1-595): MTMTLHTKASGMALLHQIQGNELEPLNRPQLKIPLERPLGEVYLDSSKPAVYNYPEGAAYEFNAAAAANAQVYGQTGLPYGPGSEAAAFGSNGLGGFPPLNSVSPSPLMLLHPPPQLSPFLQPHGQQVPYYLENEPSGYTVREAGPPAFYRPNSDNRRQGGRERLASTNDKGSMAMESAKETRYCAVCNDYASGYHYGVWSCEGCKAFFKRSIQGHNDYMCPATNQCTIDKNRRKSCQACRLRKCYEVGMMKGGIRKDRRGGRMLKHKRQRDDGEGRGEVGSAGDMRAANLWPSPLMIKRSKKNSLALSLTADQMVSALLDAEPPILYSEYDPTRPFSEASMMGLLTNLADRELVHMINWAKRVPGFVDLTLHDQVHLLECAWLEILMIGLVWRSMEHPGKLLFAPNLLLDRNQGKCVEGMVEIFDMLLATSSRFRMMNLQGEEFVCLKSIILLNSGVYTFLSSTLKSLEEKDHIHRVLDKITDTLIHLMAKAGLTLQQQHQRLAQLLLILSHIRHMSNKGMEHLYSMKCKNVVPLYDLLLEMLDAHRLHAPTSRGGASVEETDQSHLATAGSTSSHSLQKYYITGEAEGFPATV

ERβ = ERβ (Homo sapiens, UniProt Q92731); experiment: as above; type: binding; set-up: purchased PanVera Corporation, Madison, WI; key: semiquantitative scale of 0 to 7+; 1+: semiquantitative scale of 0 to 7+; 2+: semiquantitative scale of 0 to 7+; 3+: semiquantitative scale of 0 to 7+; 4+: semiquantitative scale of 0 to 7+; 5+: semiquantitative scale of 0 to 7+; 6+: semiquantitative scale of 0 to 7+; semiquantitative scale of 0 to 7+; settings: for binding activity, ERβ and Estradiol: ERβ and Estradiol (1 µM); for binding activity, ERβ and tamoxifen: ERβ and tamoxifen (4-OH tamoxifen, 1 µM)
ERβ, sequence (Q92731 whole entry): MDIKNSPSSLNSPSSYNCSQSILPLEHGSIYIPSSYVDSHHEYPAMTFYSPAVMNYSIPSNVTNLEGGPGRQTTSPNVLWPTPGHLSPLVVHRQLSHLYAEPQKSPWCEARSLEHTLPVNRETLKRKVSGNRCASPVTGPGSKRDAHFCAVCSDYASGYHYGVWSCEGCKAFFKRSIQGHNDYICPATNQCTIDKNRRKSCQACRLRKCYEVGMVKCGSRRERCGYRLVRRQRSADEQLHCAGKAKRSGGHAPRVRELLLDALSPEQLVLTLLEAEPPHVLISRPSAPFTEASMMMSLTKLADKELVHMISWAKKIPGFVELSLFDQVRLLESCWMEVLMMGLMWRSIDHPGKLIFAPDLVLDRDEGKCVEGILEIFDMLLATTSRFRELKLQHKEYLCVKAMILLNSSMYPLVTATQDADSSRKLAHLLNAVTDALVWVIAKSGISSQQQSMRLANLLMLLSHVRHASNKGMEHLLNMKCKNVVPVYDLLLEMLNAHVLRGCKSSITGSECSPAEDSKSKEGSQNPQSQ

SSYEIPKWALQWLSR [Peptide 34E-β]
binding activity, ERα and buffer (ERα): 5+
binding activity, ERα and estradiol (ERα): 3+
binding activity, ERα and tamoxifen (ERα): 4+
binding activity, ERβ and Estradiol (ERβ): 6+
binding activity, ERβ and buffer (ERβ): 4+
binding activity, ERβ and tamoxifen (ERβ): 2+

SRWWLDDHELLLYSSR [Peptide 26E-β]
binding activity, ERα and buffer (ERα): 6+
binding activity, ERα and estradiol (ERα): 4+
binding activity, ERα and tamoxifen (ERα): 5+
binding activity, ERβ and Estradiol (ERβ): 7+
binding activity, ERβ and buffer (ERβ): 5+
binding activity, ERβ and tamoxifen (ERβ): 2+

SSSMMREFFERELSR [Peptide 5b-β]
binding activity, ERα and buffer (ERα): 6+
binding activity, ERα and estradiol (ERα): 6+
binding activity, ERα and tamoxifen (ERα): 7+
binding activity, ERβ and Estradiol (ERβ): 6+
binding activity, ERβ and buffer (ERβ): 7+
binding activity, ERβ and tamoxifen (ERβ): 7+

SSSLGPWRLSELESR [Peptide 16b-β]
binding activity, ERα and buffer (ERα): 2+
binding activity, ERα and estradiol (ERα): 3+
binding activity, ERα and tamoxifen (ERα): 3+
binding activity, ERβ and Estradiol (ERβ): 4+
binding activity, ERβ and buffer (ERβ): 7+
binding activity, ERβ and tamoxifen (ERβ): 5+

SSIPPRSWWLSQLSR [Peptide 19b-β]
binding activity, ERα and buffer (ERα): 5+
binding activity, ERα and estradiol (ERα): 4+
binding activity, ERα and tamoxifen (ERα): 4+
binding activity, ERβ and Estradiol (ERβ): 6+
binding activity, ERβ and buffer (ERβ): 7+
binding activity, ERβ and tamoxifen (ERβ): 7+

SRLHDLLLRDESPSR [Peptide 3E-β]
binding activity, ERα and buffer (ERα): 4+
binding activity, ERα and estradiol (ERα): 5+
binding activity, ERα and tamoxifen (ERα): 4+
binding activity, ERβ and Estradiol (ERβ): 6+
binding activity, ERβ and buffer (ERβ): 3+
binding activity, ERβ and tamoxifen (ERβ): 1+

SSLKCLLQSSPQKQPFCSR [Peptide 19E-β]
binding activity, ERα and buffer (ERα): 4+
binding activity, ERα and estradiol (ERα): 5+
binding activity, ERα and tamoxifen (ERα): 3+
binding activity, ERβ and Estradiol (ERβ): 7+
binding activity, ERβ and buffer (ERβ): 4+
binding activity, ERβ and tamoxifen (ERβ): 2+

SSGLPPNFERMLKSR [Peptide 6b-β]
binding activity, ERα and buffer (ERα): 5+
binding activity, ERα and estradiol (ERα): 3+
binding activity, ERα and tamoxifen (ERα): 3+
binding activity, ERβ and Estradiol (ERβ): 2+
binding activity, ERβ and buffer (ERβ): 6+
binding activity, ERβ and tamoxifen (ERβ): 2+

SRDWRSGFLYELLSR [Peptide 4E-β]
binding activity, ERα and buffer (ERα): 6+
binding activity, ERα and estradiol (ERα): 5+
binding activity, ERα and tamoxifen (ERα): 6+
binding activity, ERβ and Estradiol (ERβ): 7+
binding activity, ERβ and buffer (ERβ): 5+
binding activity, ERβ and tamoxifen (ERβ): 3+

SSLQAGSWLMHYLRGGDSR [Peptide 23E-β]
binding activity, ERα and buffer (ERα): 6+
binding activity, ERα and estradiol (ERα): 6+
binding activity, ERα and tamoxifen (ERα): 5+
binding activity, ERβ and Estradiol (ERβ): 7+
binding activity, ERβ and buffer (ERβ): 5+
binding activity, ERβ and tamoxifen (ERβ): 2+

SSDLYSQMREFFQINLSR [Peptide 23t-β]
binding activity, ERα and buffer (ERα): 4+
binding activity, ERα and estradiol (ERα): 4+
binding activity, ERα and tamoxifen (ERα): 6+
binding activity, ERβ and Estradiol (ERβ): 6+
binding activity, ERβ and buffer (ERβ): 6+
binding activity, ERβ and tamoxifen (ERβ): 7+

SREWEDGFGGRWLSR [Peptide 4t-β]
binding activity, ERα and buffer (ERα): 2+
binding activity, ERα and estradiol (ERα): 2+
binding activity, ERα and tamoxifen (ERα): 3+
binding activity, ERβ and Estradiol (ERβ): 7+
binding activity, ERβ and buffer (ERβ): 7+
binding activity, ERβ and tamoxifen (ERβ): 7+

SSIKDFPNLISLLSR [Peptide 12E-β]
binding activity, ERα and buffer (ERα): 2+
binding activity, ERα and estradiol (ERα): 2+
binding activity, ERα and tamoxifen (ERα): 2+
binding activity, ERβ and Estradiol (ERβ): 7+
binding activity, ERβ and buffer (ERβ): 4+
binding activity, ERβ and tamoxifen (ERβ): 1+

SSWPGAEWFKEQLSR [Peptide 20b-β]
binding activity, ERα and buffer (ERα): 4+
binding activity, ERα and estradiol (ERα): 3+
binding activity, ERα and tamoxifen (ERα): 4+
binding activity, ERβ and Estradiol (ERβ): 4+
binding activity, ERβ and buffer (ERβ): 7+
binding activity, ERβ and tamoxifen (ERβ): 5+

SRMFQVCGDEVCLRSR [Peptide 16t-β]
binding activity, ERα and buffer (ERα): 7+
binding activity, ERα and estradiol (ERα): 6+
binding activity, ERα and tamoxifen (ERα): 7+
binding activity, ERβ and Estradiol (ERβ): 5+
binding activity, ERβ and buffer (ERβ): 7+
binding activity, ERβ and tamoxifen (ERβ): 7+

SSVASREWWVRELSR [Peptide 15t-β]
binding activity, ERα and buffer (ERα): 3+
binding activity, ERα and estradiol (ERα): 2+
binding activity, ERα and tamoxifen (ERα): 5+
binding activity, ERβ and Estradiol (ERβ): 2+
binding activity, ERβ and buffer (ERβ): 6+
binding activity, ERβ and tamoxifen (ERβ): 7+

SRLEDLLRGDSKPQSR [Peptide 7E-β]
binding activity, ERα and buffer (ERα): 4+
binding activity, ERα and estradiol (ERα): 6+
binding activity, ERα and tamoxifen (ERα): 3+
binding activity, ERβ and Estradiol (ERβ): 6+
binding activity, ERβ and buffer (ERβ): 5+
binding activity, ERβ and tamoxifen (ERβ): 1+

SSRTLLEHYLLGGSR [Peptide 20E-β]
binding activity, ERα and buffer (ERα): 5+
binding activity, ERα and estradiol (ERα): 5+
binding activity, ERα and tamoxifen (ERα): 4+
binding activity, ERβ and Estradiol (ERβ): 7+
binding activity, ERβ and buffer (ERβ): 3+
binding activity, ERβ and tamoxifen (ERβ): 2+

SSLKCLLNSNFCSR [Peptide 18E-β]
binding activity, ERα and buffer (ERα): 5+
binding activity, ERα and estradiol (ERα): 6+
binding activity, ERα and tamoxifen (ERα): 5+
binding activity, ERβ and Estradiol (ERβ): 7+
binding activity, ERβ and buffer (ERβ): 4+
binding activity, ERβ and tamoxifen (ERβ): 1+

SYSKEWFEERLNSR [Peptide 4b-β]
binding activity, ERα and buffer (ERα): 4+
binding activity, ERα and estradiol (ERα): 3+
binding activity, ERα and tamoxifen (ERα): 3+
binding activity, ERβ and Estradiol (ERβ): 3+
binding activity, ERβ and buffer (ERβ): 7+
binding activity, ERβ and tamoxifen (ERβ): 3+

SSPTGHRLLESLLLNSNSR [Peptide 8E-β]
binding activity, ERα and buffer (ERα): 4+
binding activity, ERα and estradiol (ERα): 6+
binding activity, ERα and tamoxifen (ERα): 3+
binding activity, ERβ and Estradiol (ERβ): 7+
binding activity, ERβ and buffer (ERβ): 5+
binding activity, ERβ and tamoxifen (ERβ): 1+

SSQVWPGPWRLVESR [Peptide 14b-β]
binding activity, ERα and buffer (ERα): 2+
binding activity, ERα and estradiol (ERα): 2+
binding activity, ERα and tamoxifen (ERα): 3+
binding activity, ERβ and Estradiol (ERβ): 7+
binding activity, ERβ and buffer (ERβ): 7+
binding activity, ERβ and tamoxifen (ERβ): 7+

SSSGPWRWGLSIESR [Peptide 17b-β]
binding activity, ERα and buffer (ERα): 2+
binding activity, ERα and estradiol (ERα): 2+
binding activity, ERα and tamoxifen (ERα): 3+
binding activity, ERβ and Estradiol (ERβ): 2+
binding activity, ERβ and buffer (ERβ): 5+
binding activity, ERβ and tamoxifen (ERβ): 4+
